The labels stand for the following.
B1: H237-MB835/MRAL-k0 (antibody, mouse IgG1, kappa)
heavy: QVQLQESGPGLVKPSETLSLTCAVSGHSISHDHAWSWVRQPPGEGLEWIGFISYSGITNYNPSLQGRVTISRDNSKNTLYLQMNSLRAEDTAVYYCARSLARTTAMDYWGEGTLVTVSSAKTTPPSVYPLAPGSAAQTNSMVTLGCLVKGYFPEPVTVTWNSGSLSSGVHTFPAVLQSDLYTLSSSVTVPSSTWPSETVTCNVAHPASSTKVDKKIVPRDCGCKPCICEPNEVELVFIFPPKPKDVLTITLTPKVTCVVVDISDDDPEVQFSWFVDDVEVHTAQTQPREEQFNSTFRSVSELPIMHQDWLNGKEFKCRVNSAAFPAPIEKTISKTKGRPKAPQVYTIPPPKEQMAKDKVSLTCMITDFFPEDITVEWQWNGQPAENYKNTQPIMDTDGSYFVYSKLNVQKSNWEAGNTFTCSVLHEGLHNHHTEKSLSHSPGK
light: not shown
notes: copies: 2 + 2
B2: H237-MB869/MRAL-k0 (antibody, mouse IgG1, kappa)
heavy: B1 heavy with L235I, A322D, A323G, E329Y
light: not shown
notes: copies: 2 + 2
B3: H237-MB866/MRAL-k0 (antibody, mouse IgG1, kappa)
heavy: B1 heavy with L235I, D264K, A322D, A323G
light: not shown
notes: copies: 2 + 2
B4: H237-MB848/MRAL-k0 (antibody, mouse IgG1, kappa)
heavy: B1 heavy with D264K, N320D, A322D, A323G
light: not shown
notes: copies: 2 + 2
B5: H237-MB862/MRAL-k0 (antibody, mouse IgG1, kappa)
heavy: B1 heavy with A322D, A323G, P327Y
light: not shown
notes: copies: 2 + 2
B6: H237-MB851/MRAL-k0 (antibody, mouse IgG1, kappa)
heavy: B1 heavy with D264K, A322D, A323G, K330R
light: not shown
notes: copies: 2 + 2
B7: H237-MB877/MRAL-k0 (antibody, mouse IgG1, kappa)
heavy: B1 heavy with L235I, N320D, A322D, A323G, K330R
light: not shown
notes: copies: 2 + 2
B8: H237-MB846/MRAL-k0 (antibody, mouse IgG1, kappa)
heavy: B1 heavy with A322D, A323G
light: not shown
notes: copies: 2 + 2
B9: H237-MB858/MRAL-k0 (antibody, mouse IgG1, kappa)
heavy: B1 heavy with D264K, N320D, A322D, A323G, K330R
light: not shown
notes: copies: 2 + 2
B10: H237-MB859/MRAL-k0 (antibody, mouse IgG1, kappa)
heavy: B1 heavy with D264K, A322D, A323G, P327Y, K330R
light: not shown
notes: copies: 2 + 2
B11: H237-MB868/MRAL-k0 (antibody, mouse IgG1, kappa)
heavy: B1 heavy with L235I, N320D, A322D, A323G
light: not shown
notes: copies: 2 + 2
B12: H237-MB850/MRAL-k0 (antibody, mouse IgG1, kappa)
heavy: B1 heavy with D264K, A322D, A323G, E329Y
light: not shown
notes: copies: 2 + 2
B13: H237-MB875/MRAL-k0 (antibody, mouse IgG1, kappa)
heavy: B1 heavy with L235I, Q291L, N320D, A322D, A323G
light: not shown
notes: copies: 2 + 2
B14: H237-MB860/MRAL-k0 (antibody, mouse IgG1, kappa)
heavy: B1 heavy with D264K, A322D, A323G, E329Y, K330R
light: not shown
notes: copies: 2 + 2
B15: H237-MB876/MRAL-k0 (antibody, mouse IgG1, kappa)
heavy: B1 heavy with L235I, Q291L, A322D, A323G, E329Y
light: not shown
notes: copies: 2 + 2
B16: H237-MB852/MRAL-k0 (antibody, mouse IgG1, kappa)
heavy: B1 heavy with D264K, Q291L, N320D, A322D, A323G
light: not shown
notes: copies: 2 + 2
B17: H237-MB863/MRAL-k0 (antibody, mouse IgG1, kappa)
heavy: B1 heavy with A322D, A323G, E329Y
light: not shown
notes: copies: 2 + 2
B18: H237-MB854/MRAL-k0 (antibody, mouse IgG1, kappa)
heavy: B1 heavy with D264K, Q291L, A322D, A323G, E329Y
light: not shown
notes: copies: 2 + 2
B19: H237-MB870/MRAL-k0 (antibody, mouse IgG1, kappa)
heavy: B1 heavy with L235I, A322D, A323G, K330R
light: not shown
notes: copies: 2 + 2
B20: H237-MB849/MRAL-k0 (antibody, mouse IgG1, kappa)
heavy: B1 heavy with D264K, A322D, A323G, P327Y
light: not shown
notes: copies: 2 + 2
B21: H237-MB847/MRAL-k0 (antibody, mouse IgG1, kappa)
heavy: B1 heavy with D264K, Q291L, A322D, A323G
light: not shown
notes: copies: 2 + 2
B22: H237-MB856/MRAL-k0 (antibody, mouse IgG1, kappa)
heavy: B1 heavy with D264K, N320D, A322D, A323G, P327Y
light: not shown
notes: copies: 2 + 2
B23: H237-MB857/MRAL-k0 (antibody, mouse IgG1, kappa)
heavy: B1 heavy with D264K, N320D, A322D, A323G, E329Y
light: not shown
notes: copies: 2 + 2
B24: H237-MB871/MRAL-k0 (antibody, mouse IgG1, kappa)
heavy: B1 heavy with L235I, Q291L, A322D, A323G
light: not shown
notes: copies: 2 + 2
B25: H237-MB867/MRAL-k0 (antibody, mouse IgG1, kappa)
heavy: B1 heavy with L235I, A322D, A323G
light: not shown
notes: copies: 2 + 2

Where a chain is given by its changes, count along the chain named.

Usually Kd stands for a measure of binding affinity in units of concentration.

The first assay deals with T1, mouse FcγRII extracellular domain, C-terminal His tag (mouse, UniProt P08101 30-210).
T1 construct: also called mFcγRII; mFcgRII
T1 sequence: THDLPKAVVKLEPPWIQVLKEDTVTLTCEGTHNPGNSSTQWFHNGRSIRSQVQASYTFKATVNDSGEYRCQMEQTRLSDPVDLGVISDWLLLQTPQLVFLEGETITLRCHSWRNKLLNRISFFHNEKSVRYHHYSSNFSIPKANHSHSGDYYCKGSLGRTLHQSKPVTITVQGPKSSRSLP
The assay can be described thus: SPR (Biacore T200), antibody captured on Protein L, mFcγR analyte.
With B1, the Kd amounted to 8 nM and the “relative mFcγRII-binding activity (mIgG1 = 1)” value was 26.3 fold vs H237-mIgG1/MRAL-k0.
For B2 the same measures were 5.12 nM and 41 fold vs H237-mIgG1/MRAL-k0.
For B3 the same measures were 16.2 nM and 13 fold vs H237-mIgG1/MRAL-k0.
Regarding B4, the Kd came to 4.58 nM and the “relative mFcγRII-binding activity (mIgG1 = 1)” value was 45.8 fold vs H237-mIgG1/MRAL-k0.
For B5 the same measures were 3.09 nM and 67.9 fold vs H237-mIgG1/MRAL-k0.
On to B6, for which binding was put at a Kd of 4.79 nM and the “relative mFcγRII-binding activity (mIgG1 = 1)” value is 43.8 fold vs H237-mIgG1/MRAL-k0.
For B7 the same measures were 3.8 nM and 55.3 fold vs H237-mIgG1/MRAL-k0.
For B8, in that order: 2.91 nM and 72.1 fold vs H237-mIgG1/MRAL-k0.
With B9, the dissociation constant (Kd) is 3.39 nM and the “relative mFcγRII-binding activity (mIgG1 = 1)” value is 62 fold vs H237-mIgG1/MRAL-k0.
As for B10, the affinity, expressed as Kd, was 6.15 nM and the “relative mFcγRII-binding activity (mIgG1 = 1)” value was 34.2 fold vs H237-mIgG1/MRAL-k0.
For B11, in that order: 5.73 nM and 36.6 fold vs H237-mIgG1/MRAL-k0.
For B12 the same measures were 4.81 nM and 43.7 fold vs H237-mIgG1/MRAL-k0.
Regarding B13, the equilibrium dissociation constant (Kd) is 2.88 nM and the “relative mFcγRII-binding activity (mIgG1 = 1)” value was 72.8 fold vs H237-mIgG1/MRAL-k0.
For B14, in that order: 5.3 nM and 39.6 fold vs H237-mIgG1/MRAL-k0.
For B15 the same measures were 3.58 nM and 58.7 fold vs H237-mIgG1/MRAL-k0.
For B16, in that order: 3.44 nM and 61 fold vs H237-mIgG1/MRAL-k0.
Regarding B17, the dissociation constant Kd was 2.58 nM and the “relative mFcγRII-binding activity (mIgG1 = 1)” value was 81.3 fold vs H237-mIgG1/MRAL-k0.
For B18 the same measures were 4.15 nM and 50.6 fold vs H237-mIgG1/MRAL-k0.
For B19, in that order: 5.44 nM and 38.6 fold vs H237-mIgG1/MRAL-k0.
As to B20, the dissociation constant Kd was 6.68 nM and the “relative mFcγRII-binding activity (mIgG1 = 1)” value is 31.4 fold vs H237-mIgG1/MRAL-k0.
For B21 the same measures were 4.81 nM and 43.7 fold vs H237-mIgG1/MRAL-k0.
For B22 the same measures were 4.69 nM and 44.8 fold vs H237-mIgG1/MRAL-k0.
As to B23, the equilibrium dissociation constant (Kd) was determined as 4.71 nM and the “relative mFcγRII-binding activity (mIgG1 = 1)” value was 44.6 fold vs H237-mIgG1/MRAL-k0.
For B24, in that order: 3.4 nM and 61.8 fold vs H237-mIgG1/MRAL-k0.
Turning to B25, the Kd was 5.96 nM and the “relative mFcγRII-binding activity (mIgG1 = 1)” value is 35.2 fold vs H237-mIgG1/MRAL-k0.

The next assay addresses T2, mouse FcγRIII extracellular domain, C-terminal His tag (mouse, UniProt P08508 31-215).
T2 construct: also called mFcγRIII; mFcgRIII
T2 chain: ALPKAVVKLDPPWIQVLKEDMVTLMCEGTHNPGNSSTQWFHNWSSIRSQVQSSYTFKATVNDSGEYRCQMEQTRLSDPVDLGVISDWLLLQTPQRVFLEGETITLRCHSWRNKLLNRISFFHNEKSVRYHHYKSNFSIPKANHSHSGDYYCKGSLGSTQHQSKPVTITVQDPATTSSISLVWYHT
The description is as above.
Regarding B1, the Kd is 401 nM and the “relative mFcγRIII-binding activity (mIgG1 = 1)” value was 0.7 fold vs H237-mIgG1/MRAL-k0.
For B2 the same measures were 300 nM and 0.9 fold vs H237-mIgG1/MRAL-k0.
For B3 the same measures were 1570 nM and 0.2 fold vs H237-mIgG1/MRAL-k0.
For B4, in that order: 308 nM and 0.9 fold vs H237-mIgG1/MRAL-k0.
Regarding B5, the equilibrium dissociation constant (Kd) turned out to be 142 nM and the “relative mFcγRIII-binding activity (mIgG1 = 1)” value is 2 fold vs H237-mIgG1/MRAL-k0.
For B6 the same measures were 295 nM and 1 fold vs H237-mIgG1/MRAL-k0.
Consider B7, for which the Kd is 195 nM and the “relative mFcγRIII-binding activity (mIgG1 = 1)” value is 1.4 fold vs H237-mIgG1/MRAL-k0.
For B8, in that order: 133 nM and 2.1 fold vs H237-mIgG1/MRAL-k0.
For B9 the same measures were 223 nM and 1.3 fold vs H237-mIgG1/MRAL-k0.
For B10, in that order: 396 nM and 0.7 fold vs H237-mIgG1/MRAL-k0.
As for B11, the dissociation constant Kd was 329 nM and the “relative mFcγRIII-binding activity (mIgG1 = 1)” value was 0.9 fold vs H237-mIgG1/MRAL-k0.
For B12, in that order: 358 nM and 0.8 fold vs H237-mIgG1/MRAL-k0.
For B13 the same measures were 147 nM and 1.9 fold vs H237-mIgG1/MRAL-k0.
On to B14, for which the Kd was 379 nM and the “relative mFcγRIII-binding activity (mIgG1 = 1)” value was 0.7 fold vs H237-mIgG1/MRAL-k0.
For B15 the same measures were 191 nM and 1.5 fold vs H237-mIgG1/MRAL-k0.
For B16 the same measures were 154 nM and 1.8 fold vs H237-mIgG1/MRAL-k0.
For B17, in that order: 121 nM and 2.3 fold vs H237-mIgG1/MRAL-k0.
Regarding B18, binding was put at a Kd of 225 nM and the “relative mFcγRIII-binding activity (mIgG1 = 1)” value is 1.3 fold vs H237-mIgG1/MRAL-k0.
For B19 the same measures were 269 nM and 1 fold vs H237-mIgG1/MRAL-k0.
For B20 the same measures were 436 nM and 0.6 fold vs H237-mIgG1/MRAL-k0.
For B21, in that order: 213 nM and 1.3 fold vs H237-mIgG1/MRAL-k0.
With B22, the Kd was 311 nM and the “relative mFcγRIII-binding activity (mIgG1 = 1)” value was 0.9 fold vs H237-mIgG1/MRAL-k0.
For B23 the same measures were 313 nM and 0.9 fold vs H237-mIgG1/MRAL-k0.
For B24 the same measures were 169 nM and 1.7 fold vs H237-mIgG1/MRAL-k0.
Take B25: binding was characterised by a dissociation constant (Kd) of 331 nM and the “relative mFcγRIII-binding activity (mIgG1 = 1)” value was 0.9 fold vs H237-mIgG1/MRAL-k0.

(Values after US20150203577A1 (Chugai, published 2015).)
